Assay results taken from the nanobody polyreactivity screen of Harvey et al. (2022).

Experiment: yeast display, Sf9 membrane polyspecificity reagent, FACS + sequencing; frameworks hold sequencing errors
Summary of the method: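 Galactose-induced (36–48 hours) yeast carrying a synthetic nanobody display library were exposed to 10% biotinylated, detergent-solubilized Sf9 membrane reagent at 4 °C for 1 hour. FACS followed streptavidin microbead enrichment, using low and high (top ~1%) gates for expression (anti-HA) and reagent binding (streptavidin). Colony PCR, MiSeq 2 × 250 sequencing and CDR-length filtering followed. Labels for polyreactivity reflect the gate of origin.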

Row | Sequence | polyreactivity (PSR sort gate)
1 | QVQLVESGGGLVQAGGSLRLSCAASGRTLHYYAMGWYRQAPGKERELVAAISARVGRTYYADSVKGRFTISRDNAKNTVYLQMNSLKPEDTEVYYCAAAGYITRYDRYDYWGQGTQVTVSS | high polyreactivity
2 | QVQLVESGGGLVQAGGSLRLSCAASGRTLIAYAMGWYRQAHGKEREFVAAIRADDGRTYYADSVKGRFTISRDNAKNTVYFQMNSLKPEDTAVYYCDTKADKRYRFGYWGQGTQVTVSS | high polyreactivity
3 | QVQLVESGGGLVQAGGSLRLSCAASGRTLIYNVMGWYRQAPGKERELVAAITNGGSTYYADSVKGRFTISRDNAKNTVYLQMNSLKPEDTAVYYCATRYGKTYWGQGNQVTVSS | high polyreactivity
4 | QVQLVESGGGLVQAGGSLRLSCAASGRTLKYNAKGGNRQAPGKARELVAALTNSGTRTYYADSVKGRFTISRDNAKNTVYLQMNSQKPEDTAVYYCAKDSYPYLRVGHLKYRVKTYGHWGQGTQVTVSS | high polyreactivity
5 | QVQLVESGGGLVQAGGSLRLSCAASGRTLKYYAMGWYRQAPGKERELVAAITWSGTRTFYADSVKGRFTISRDNAKNTVYLQMNSLKPEDTAVYYCARTYYGGAGYEYWGQVTQVTVSS | high polyreactivity
6 | QVQLVESGGGLVQAGGSLRLSCAASGRTLNNNAMGWYRQAPGKERELVAAISRSGGRTYYADSVKGRFTISRDNAKNTVYLQMNSLKPEDTAVYYCAAVNIRFGYADRFYYVYRGDEWGQGTQVTVSS | high polyreactivity
7 | QVQLVESGGGLVQAGGSLRLSCAASGRTLNWYAMGWYRQAPGKERELVAVINLSGGRTYYADSVKGRFTISRDNAKNTVYLQMNSLKPEDTAVYYCNAPSVWERSYEKYDYWGQATQVTVSS | low polyreactivity
8 | QVQLVESGGGLVQAGGSLRLSCAASGRTLPKYVLGWYRQSPGKERELVAAISSSGDSTYYADSVNGRFTISRDNAKNTVYLQMNILKPEDTAVYYCDKYDRNTYGYWGQGTQVTVST | low polyreactivity
9 | QVQLVESGGGLVQAGGSLRLSCAASGRTLPSYSMGCYREAPGKERELFAAITGSGGRTYYADSVKGRFTISRDNAKNSVYLQMNSLKPEDTAVYYCNAYSRTWYARSYYYWGQGTQVTVSS | high polyreactivity
10 | QVQLVESGGGLVQAGGSLRLSCAASGRTLQQYVMGWYRQAPGQERELVAAITRGGRTNYADSVKGRFTISRDNAKNTVYLQMNSLNPEDTAVYYCNTRYPSRLVAWLDYWGQGTQVTVSS | low polyreactivity
11 | QVQLVESGGGLVQAGGSLRLSCAASGRTLRGYAMGWYRQAPGKERELVAAISKGGGSTFYADSVKGRFTISRDNAKNTVYLQMNSLKPEDTAVYYCAADYYSYTYYLDFDYWGQGTQVTVSS | high polyreactivity
12 | QVQLVESGGGLVQAGGSLRLSCAASGRTLRGYAMGWYRQAPGKERELVAAITWSGGSTYYADSVKGRFTISRDNAKNTVYLQMNSLKPEDTAVYYCNARSYPDLYDYWGQGTQVTVSS | low polyreactivity
13 | QVQLVESGGGLVQAGGSLRLSCAASGRTLRKYAMGWYRQAPGKERELVAGFTGSAGSTYYADSVKGRFTISRDNAKNTVYLQMNSLKPEDTAVYYCAKSGLRYGFDYWGQGTQVTVSS | high polyreactivity
14 | QVQLVESGGGLVQAGGSLRLSCAASGRTLRRYAMGWYRQAPGKERELVAAISRSGSSTYADSVKGRFTISRDNAKNTVSLQMNSLKPEDTAVYYCNAYQPRYGYWGQGTQVTVSS | high polyreactivity
15 | QVQLVESGGGLVQAGGSLRLSCAASGRTLRSNAMGWYRQAPGKERELVAAISSNGGSTYYADSVKGRFTISRDNAKNTVYLQMNSLKPEDTAVYYCAALSYYYSDRMDYWGQGTQVSVSS | low polyreactivity
16 | QVQLVESGGGLVQAGGSLRLSCAASGRTLRTYAMGWSRQAPGKERELVAAITSSGGRTYYADSVKGRFTISRDNAKNTVYLQMNSLKPEDTAVYYCAAARYYYGGDYWGQGTQVTVSS | high polyreactivity
17 | QVQLVESGGGLVQAGGSLRLSCAASGRTLRTYGMGWYRQAPGKERELVARITIGGRTYYADSVKGRFTISRDNAKNTVYLQMNSLKPEDTAVYYCAARYAGGTSRILYGYWGQGTQVTVSS | high polyreactivity
18 | QVQLVESGGGLVQAGGSLRLSCAASGRTLRWYAMGWYRQAPGKERELVAAINWSGTSTYYADSVKGRFTISRDNAKNTVYLQMNSLKPEDTAVYYCAKRVTWNYDWGQGTQVTVSS | high polyreactivity
19 | QVQLVESGGGLVQAGGSLRLSCAASGRTLRYNTMGWYRQAPGKERELVAAITRSGTGTNYADSVKGRFTISRDNAKNTVYLQMNSLKPEDTAVYYCAAAPFPRRRYDYWGQGTQVTVSS | high polyreactivity
20 | QVQLVESGGGLVQAGGSLRLSCAASGRTLRYYDMGWYRQEPGKEREIVAAISWSGVSTYYADSVKGRFTISRDNAKNTVYLQMNSMQPEDTAVYYCAVGYVLTGVFEARFDYWGQGTLVTVSS | high polyreactivity
21 | QVQLVESGGGLVQAGGSLRLSCAASGRTLSNYAMGWSRQAPGKETELVAAISSSGSTNYADSVKGRFTISRDNAKNTVYLQMNSLKPEDTAVYYCAAESWFLRWYRYDYWGQGTQVSVSS | low polyreactivity
22 | QVQLVESGGGLVQAGGSLRLSCAASGRTLSRYTMGWYRQAPGKERELVAAISTSGSTYYADSVKGRFTISRDNAKNTVYLQMNSLKPEDTAVYYCNAVRRYLQYATGYDYWGQGTQVTVSS | high polyreactivity

Row | Sequence | polyreactivity (PSR sort gate)
23 | QVQLVESGGGLVQAGGSLRLSCAASGRTLSVYAMGWYRQAPGKERELVAAITWRGGSTYYADSVKGRFTISRDNAKNTVYLQMNSLKPEDTAVYYCAAEDYTYNGGGYEYWGQGTQVTVSS | low polyreactivity
24 | QVQLVESGGGLVQAGGSLRLSCAASGRTLSVYAMGWYSQAPGKEMEFVAAISFSGGSTYYADSVKGRFTISRDNAKNTVYLQMNSQKPEDTAVYYCATAYPEFLSTTVGLLYLDDYWGQGTQVTVSS | low polyreactivity
25 | QVQLVESGGGLVQAGGSLRLSCAASGRTLSYYAMGWYRQAPGKEREFVAAINWSGGSTYYADSVKGRFTISRDNAKNTVYLQMISLKPEDTAVYYCAAYRPYSSSEGDYWGQGTQVTVSS | high polyreactivity
26 | QVQLVESGGGLVQAGGSLRLSCAASGRTLTRNAMAWYRQAPRTERELVAVITSSGSRTYYADSVKGRFTISRDNAKNTVYLQMNSLKPEDTAVYYCAAKVDASDVRRSRAGRYDYWGQGTQVTVSS | high polyreactivity
27 | QVQLVESGGGLVQAGGSLRLSCAASGRTLTRYTMGWYRQAPGKERELVATISRSGGNTHYADSVKGRFTISRDNAKNTVYLQMNSLKPEDTAVYYCNAVRYAIYGYDYWGQGTQVTVSS | high polyreactivity
28 | QVQLVESGGGLVQAGGSLRLSCAASGRTLVDYAMGWYRQAPGKERELVAAINFSGGSTNYADSVKGRFTISRDNAKNTVYLQMNSLKPEDTAVYYCNKEGRPDRDYWGQGTQVTVSS | low polyreactivity
29 | QVQLVESGGGLVQAGGSLRLSCAASGRTLVKYAMGWYRQAPGKERELVAAITQRGGITYYADSVKGRFTISRDNAKNTVYLQMNSLKPEDTAVYYFAASLYSYRSPYTFYYWGQGTQVTVSS | high polyreactivity
30 | QVQLVESGGGLVQAGGSLRLSCAASGRTLVRYAMGWYRQAPGKEREFVAGISYSGGSTYYADSVKGRFTISRDNAKNTVYLQMNSLKPEDTAVYYCAATTRGARKSGGNYWGQGTQVTVSS | high polyreactivity
31 | QVQLVESGGGLVQAGGSLRLSCAASGRTLWLYAMGWYRQAPGKERELVAAITRSAGTTYYADSVKGRFTISRDNAKNTVYLQMNSLKPEDTAVYYCATRYPQSSLSTSSRSSSGYWGQGTQVTVSS | high polyreactivity
32 | QVQLVESGGGLVQAGGSLRLSCAASGRTLWRYAMGWYRQAPGKERELVASIRSGGSTYYADSVKGRFTISRDNAKNTVYLQMNSLKPEDTAVYYCAARYYWGAEAGYYYWGQGTQVTVSS | high polyreactivity
33 | QVQLVESGGGLVQAGGSLRLSCAASGRTLYFNAMGWYRQAAGKERELVASITNGGRTNYADSVKGRFTISRDNAKNTVYLQMNSLKPEDTAVYYCAKRTLCSRGVNYYWGQGTQVTVSS | high polyreactivity
34 | QVQLVESGGGLVQAGGSLRLSCAASGRTLYGNAMGWYRQAPGKEREFVAAITRSGGTTYYADSVKGRFTISRDNAKNTVYLQMNSLKPEDTAVYYCATAFRGYTGLFYWGQGTQVTVSS | high polyreactivity
35 | QVQLVESGGGLVQAGGSLRLSCAASGRTLYGYAMGWYRQAPGKERELVAAISESDGSTYADSVKGRFTISRDNAKNTVYLQMNSLKPEDTAVYYCAADYYWYALQDGYYTYGYTYDYWGQGSQVTVSS | low polyreactivity
36 | QVQLVESGGGLVQAGGSLRLSCAASGRTLYGYAMGWYRQAPGKERELVAAISESDGSTYADSVKGRFTISRDNAKNTVYLQMNSLKPEDTAVYYCAADYYWYALQDGYYTYGYTYDYWGQGTQVTVSS | low polyreactivity
37 | QVQLVESGGGLVQAGGSLRLSCAASGRTLYIYAMGWYRQAPGKERELVAAIRRIGGRTYYADSVKGRFTISRDNAKNTVYLQMNSLKPEDTAVYYCNARSYRLRFSEMDYWGQGTQVTVSS | high polyreactivity
38 | QVQLVESGGGLVQAGGSLRLSCAASGRTLYKNTMGWYRPAPGKERELVAAINYSGGSTYYADSVKGRFTISRDNAKNTVYLQMNSLKPEDTAVYYCAADYYDSTGEYDYWGQGTQVTVSS | high polyreactivity
39 | QVQLVESGGGLVQAGGSLRLSCAASGRTLYKYAMGWYRQAPGKERELVAAISRNGGSTYYADSVKGRFTISRDNAKNTVYLQMNSLKPEDTAVYYCNALSRYRIWSYGYWGQGTQVTVSS | high polyreactivity
40 | QVQLVESGGGLVQAGGSLRLSCAASGRTLYRNAMGWYRQAPGKERELVAAISRSGGITYYADSVKGRFTISRDNAKNTVYLQMNSLKPEDTAVYYCAARYGRGVAPYGYWGQGTQVTVSS | high polyreactivity
41 | QVQLVESGGGLVQAGGSLRLSCAASGRTLYRNAMGWYRQAPGKERELVARITWSGASTYYADSVKGRFTISRDNAKNTVYLQMNSLKPDDTAVYYCNTGYWYVSLGSYDYYGEYDYWGQGTQVTVSS | high polyreactivity
42 | QVQLVESGGGLVQAGGSLRLSCAASGRTLYRYAMGWYRQAPGKERELVAAISSGGRTYYADSVKGRFTISRDNAKNTVYLQMNSLKPEDTAVYYCAAERGWWRNDFDYWGQGTQVTVSS | high polyreactivity
43 | QVQLVESGGGLVQAGGSLRLSCAASGRTLYVYAMGWYRQAPGKEREFVAAINSSGDSTYYADSVKGRFTISRDNAKNTVYLQMNSLKPEDTAVYYCAAAGYYGYGYDYWGQGTQVTVSS | low polyreactivity
